Patent US20140348865A1, “[…] ON AN HIV-1 V1V2 SITE-OF-VULNERABILITY” (The United States of America, as represented by the …, priority 2011, published 2014)

Experiments:
[1] = biological target: Env of HIV-1 strain QH0515 (pseudovirus) (HIV-1)
[2] = biological target: CNE10
[3] = biological target: SS1196.01
[4] = biological target: ADA.DG
[5] = biological target: Env of HIV-1 strain RHPA (pseudovirus) (HIV-1)
[6] = biological target: TRJO.58
[7] = biological target: Env of HIV-1 strain 7165.18 (pseudovirus) (HIV-1)
[8] = biological target: Env of HIV-1 strain JRFL (pseudovirus) (HIV-1)
[9] = biological target: TRO.11 (pseudovirus)
[10] = biological target: CAAN.A2
[11] = biological target: DJ263.8
[12] = biological target: BL01.DG
[13] = biological target: JR-CSF
[14] = biological target: 89.6.DG
[15] = biological target: RW020.2 (HIV-1)
[16] = biological target: 3589_V1_C4 (HIV-1)
[17] = biological target: MS208.A1 (HIV-1)
[18] = biological target: Q259.17 (HIV-1)
[19] = biological target: KNH1209.18 (HIV-1)
[20] = biological target: 6545_V4_C1 (HIV-1)
[21] = biological target: 6540.v4.c1 (HIV-1)
[22] = biological target: BB201.B42 (HIV-1)
[23] = biological target: BI369.9A (HIV-1)
[24] = biological target: Q842.d12 (HIV-1)
[25] = biological target: C3347.c11 (HIV-1)
[26] = biological target: 620345.c1 (HIV-1)
[27] = biological target: R2184.c4 (HIV-1)
[28] = biological target: 6095_V1_C10 (HIV-1)
[29] = biological target: KER2008.12 (HIV-1)
[30] = biological target: CNE59 (HIV-1)
[31] = biological target: C2101.c1 (HIV-1)
[32] = biological target: Env of HIV-1 strain CNE56 (pseudovirus) (HIV-1)
[33] = biological target: Q769.h5 (HIV-1)
[34] = biological target: Q23.17 (HIV-1)
[35] = biological target: 0815_V3_C3 (HIV-1)
[36] = biological target: Q461.e2 (HIV-1)
[37] = biological target: 0330.v4.c3 (HIV-1)
[38] = biological target: 3718.v3.c11 (HIV-1)
[39] = biological target: R3265.c6 (HIV-1)
[40] = biological target: CNE5 (HIV-1)
[41] = biological target: 3415.v1.c1 (HIV-1)
[42] = biological target: KER2018.11 (HIV-1)
[43] = biological target: R1166.c1 (HIV-1)
[44] = biological target: Env of HIV-1 strain 0439 (pseudovirus) (HIV-1)
[45] = biological target: TH966.8 (HIV-1)
[46] = biological target: CNE55 (HIV-1)
[47] = biological target: Q769.d22 (HIV-1)
[48] = biological target: Env of HIV-1 strain 398 (pseudovirus) (HIV-1)
[49] = biological target: CNE3 (HIV-1)
[50] = biological target: C4118.09 (HIV-1)
[51] = biological target: 3468_V1_C12 (HIV-1)
[52] = biological target: BB539.2B13 (HIV-1)
[53] = biological target: UG037.8 (HIV-1)
[54] = biological target: Env of HIV-1 strain QH209 (pseudovirus) (HIV-1)
[55] = biological target: TH976.17 (HIV-1)
[56] = biological target: C1080.c3 (HIV-1)
[57] = biological target: Q168.a2 (HIV-1)
[58] = biological target: MB201.A1 (HIV-1)
[59] = biological target: M02138 (HIV-1)
[60] = biological target: 3301_V1_C24 (HIV-1)
[61] = biological target: MB539.2B7 (HIV-1)
[62] = biological target: 0260.v5.c36 (HIV-1)
[63] = biological target: BS208.B1 (HIV-1)
[64] = biological target: MI369.A5 (HIV-1)

monoclonal antibody PG9
neutralization IC50 [1]: > 50 µg/mL
neutralization IC50 [2]: 0.243 µg/mL
neutralization IC50 [3]: 0.293 µg/mL
neutralization IC50 [4]: 0.342 µg/mL
neutralization IC50 [5]: > 50 µg/mL
neutralization IC50 [6]: 0.246 µg/mL
neutralization IC50 [7]: > 50 µg/mL
neutralization IC50 [8]: > 50 µg/mL
neutralization IC50 [9]: 41.5 µg/mL
neutralization IC50 [10]: 13 µg/mL
neutralization IC50 [11]: 0.1 µg/mL
neutralization IC50 [12]: > 50 µg/mL
neutralization IC50 [13]: 0.003 µg/mL
neutralization IC50 [14]: > 50 µg/mL
neutralization IC80 [15]: 0.622 µg/mL
neutralization IC80 [16]: 0.102 µg/mL
neutralization IC80 [17]: 0.589 µg/mL
neutralization IC80 [18]: 0.229 µg/mL
neutralization IC80 [19]: > 50 µg/mL
neutralization IC80 [20]: 0.315 µg/mL
neutralization IC80 [21]: 0.213 µg/mL
neutralization IC80 [22]: 0.046 µg/mL
neutralization IC80 [23]: 0.151 µg/mL
neutralization IC80 [24]: 0.021 µg/mL
neutralization IC80 [25]: 0.168 µg/mL
neutralization IC80 [26]: > 50 µg/mL
neutralization IC80 [27]: 1.75 µg/mL
neutralization IC80 [28]: 2.25 µg/mL
neutralization IC80 [29]: 0.085 µg/mL
neutralization IC80 [30]: 0.465 µg/mL
neutralization IC80 [31]: 0.289 µg/mL
neutralization IC80 [32]: > 50 µg/mL
neutralization IC80 [33]: 0.007 µg/mL
neutralization IC80 [34]: 0.02 µg/mL
neutralization IC80 [35]: > 50 µg/mL
neutralization IC80 [36]: 29.9 µg/mL
neutralization IC80 [37]: 0.083 µg/mL
neutralization IC80 [38]: 0.202 µg/mL
neutralization IC80 [39]: 9.8 µg/mL
neutralization IC80 [40]: < 0.023 µg/mL
neutralization IC80 [41]: 0.77 µg/mL
neutralization IC80 [42]: 0.004 µg/mL
neutralization IC80 [43]: 9.24 µg/mL
neutralization IC80 [44]: > 50 µg/mL
neutralization IC80 [45]: 0.183 µg/mL
neutralization IC80 [46]: 1.32 µg/mL
neutralization IC80 [47]: 0.033 µg/mL
neutralization IC80 [48]: > 50 µg/mL
neutralization IC80 [49]: 1.12 µg/mL
neutralization IC80 [50]: 0.205 µg/mL
neutralization IC80 [51]: > 50 µg/mL
neutralization IC80 [52]: 0.422 µg/mL
neutralization IC80 [53]: 0.085 µg/mL
neutralization IC80 [54]: > 50 µg/mL
neutralization IC80 [55]: > 50 µg/mL
neutralization IC80 [56]: 0.011 µg/mL
neutralization IC80 [57]: 0.342 µg/mL
neutralization IC80 [58]: 0.193 µg/mL
neutralization IC80 [59]: 1.36 µg/mL
neutralization IC80 [60]: 1.51 µg/mL
neutralization IC80 [61]: 0.383 µg/mL
neutralization IC80 [62]: 22.8 µg/mL
neutralization IC80 [63]: 0.098 µg/mL
neutralization IC80 [64]: 0.364 µg/mL

monoclonal antibody PG16
neutralization IC50 [1]: > 50 µg/mL
neutralization IC50 [2]: 9.17 µg/mL
neutralization IC50 [3]: 0.069 µg/mL
neutralization IC50 [4]: 0.023 µg/mL
neutralization IC50 [5]: 1.32 µg/mL
neutralization IC50 [6]: 0.393 µg/mL
neutralization IC50 [7]: > 50 µg/mL
neutralization IC50 [8]: > 50 µg/mL
neutralization IC50 [9]: 4.86 µg/mL
neutralization IC50 [10]: 7.43 µg/mL
neutralization IC50 [11]: 0.048 µg/mL
neutralization IC50 [12]: > 50 µg/mL
neutralization IC50 [13]: 0.002 µg/mL
neutralization IC50 [14]: > 50 µg/mL
neutralization IC80 [15]: 3.51 µg/mL
neutralization IC80 [16]: 37.8 µg/mL
neutralization IC80 [17]: 31.8 µg/mL
neutralization IC80 [18]: 0.717 µg/mL
neutralization IC80 [19]: > 50 µg/mL
neutralization IC80 [20]: 0.562 µg/mL
neutralization IC80 [21]: 0.154 µg/mL
neutralization IC80 [22]: 0.008 µg/mL
neutralization IC80 [23]: 0.037 µg/mL
neutralization IC80 [24]: 0.006 µg/mL
neutralization IC80 [25]: 0.031 µg/mL
neutralization IC80 [26]: > 50 µg/mL
neutralization IC80 [27]: > 50 µg/mL
neutralization IC80 [28]: 0.443 µg/mL
neutralization IC80 [29]: 0.046 µg/mL
neutralization IC80 [30]: > 50 µg/mL
neutralization IC80 [31]: 0.069 µg/mL
neutralization IC80 [32]: > 50 µg/mL
neutralization IC80 [33]: 0.02 µg/mL
neutralization IC80 [34]: 0.004 µg/mL
neutralization IC80 [35]: > 50 µg/mL
neutralization IC80 [36]: > 50 µg/mL
neutralization IC80 [37]: 0.027 µg/mL
neutralization IC80 [38]: 0.102 µg/mL
neutralization IC80 [39]: 0.691 µg/mL
neutralization IC80 [40]: < 0.023 µg/mL
neutralization IC80 [41]: 0.342 µg/mL
neutralization IC80 [42]: 0.002 µg/mL
neutralization IC80 [43]: 12.5 µg/mL
neutralization IC80 [44]: > 50 µg/mL
neutralization IC80 [45]: 0.03 µg/mL
neutralization IC80 [46]: > 50 µg/mL
neutralization IC80 [47]: 11 µg/mL
neutralization IC80 [48]: > 50 µg/mL
neutralization IC80 [49]: > 50 µg/mL
neutralization IC80 [50]: 0.24 µg/mL
neutralization IC80 [51]: > 50 µg/mL
neutralization IC80 [52]: 0.062 µg/mL
neutralization IC80 [53]: 0.004 µg/mL
neutralization IC80 [54]: > 50 µg/mL
neutralization IC80 [55]: > 50 µg/mL
neutralization IC80 [56]: 0.004 µg/mL
neutralization IC80 [57]: 0.106 µg/mL
neutralization IC80 [58]: 0.019 µg/mL
neutralization IC80 [59]: 0.81 µg/mL
neutralization IC80 [60]: 0.397 µg/mL
neutralization IC80 [61]: 0.205 µg/mL
neutralization IC80 [62]: > 50 µg/mL
neutralization IC80 [63]: 0.012 µg/mL
neutralization IC80 [64]: 0.082 µg/mL
